Assays:
[1] = target: T1, Unr CSD789 (A756-D990) (Drosophila, UniProt B7Z0E2 756-990); experiment: NMR titration
T1 sequence (looked up): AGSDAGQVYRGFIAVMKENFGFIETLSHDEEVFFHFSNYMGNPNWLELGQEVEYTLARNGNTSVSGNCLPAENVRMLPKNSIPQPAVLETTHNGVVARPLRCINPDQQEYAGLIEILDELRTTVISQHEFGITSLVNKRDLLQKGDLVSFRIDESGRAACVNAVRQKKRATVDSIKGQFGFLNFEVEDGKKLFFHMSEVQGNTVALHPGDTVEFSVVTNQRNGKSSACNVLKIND

[2] = target: T2, Unr CSD78 (A756-K922) (Drosophila, UniProt B7Z0E2 756-922); experiment: NMR titration
T2 sequence (looked up): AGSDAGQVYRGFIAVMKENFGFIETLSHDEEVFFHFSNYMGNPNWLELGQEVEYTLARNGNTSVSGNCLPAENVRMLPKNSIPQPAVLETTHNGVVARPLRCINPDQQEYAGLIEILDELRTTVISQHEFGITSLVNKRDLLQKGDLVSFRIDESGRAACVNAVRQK

B1: pAbp RRM3 (G176-A263) (domain or fragment)
chain: not shown
binding result [1]: binds
binding result [2]: binds
